Measured values published in article PMC6050322, “A radical S-adenosyl-L-methionine enzyme and a methyltransferase catalyze cyclopropane formation in natural product biosynthesis” (Nature Communications, 2018).

Target: T1, HemN-like radical SAM enzyme Swoo_2002 (Shewanella woodyi ATCC 51908, UniProt B1KQP7 1-448)
T1 construct: Swoo_2002, HemN-like radical SAM enzyme (counterpart of C10P) from a cryptic biosynthetic gene cluster of Shewanella woodyi ATCC 51908; The enzyme carries one [4Fe-4S] cluster per polypeptide after anaerobic reconstitution; also called C10P surrogate; c10P counterpart; source: E. coli Rosetta(DE3) (strain E. coli RoTB-SW), purified (Ni-NTA, desalination column)
T1 sequence (looked up): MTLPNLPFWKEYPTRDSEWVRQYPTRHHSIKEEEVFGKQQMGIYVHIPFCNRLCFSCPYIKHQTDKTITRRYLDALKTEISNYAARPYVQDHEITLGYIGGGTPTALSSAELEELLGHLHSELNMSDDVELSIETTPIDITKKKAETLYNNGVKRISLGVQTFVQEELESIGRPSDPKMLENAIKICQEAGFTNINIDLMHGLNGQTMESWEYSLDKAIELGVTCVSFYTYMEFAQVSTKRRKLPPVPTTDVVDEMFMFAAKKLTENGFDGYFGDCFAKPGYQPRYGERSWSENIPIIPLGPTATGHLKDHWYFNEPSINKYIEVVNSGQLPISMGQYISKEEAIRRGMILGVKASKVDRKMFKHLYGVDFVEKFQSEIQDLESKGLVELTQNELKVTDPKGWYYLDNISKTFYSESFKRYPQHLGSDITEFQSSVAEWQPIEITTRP
Test: ITC; 600 μM C10Q titrated into 200 μL of 60 μM Swoo_2002; PBS buffer pH 7.4 (after desalination, no glycerol, less than 5‰ DMSO); Malvern MicroCal ITC200
Details: both partners purified

B1: methyltransferase C10Q (enzyme, Streptomyces zelensis NRRL 11183, UniProt A0A1W6EUU7 1-234, looked up)
chain: MTTEAPLLDLAERVPLDRPHGDIEAVRAYDLGMRRSALMAYKRPTERILAAYREGMTDFVDIGFNTGLLSLHVAGRLPDVAVSGVEEFPHLVDVAEDNLTLGVWANMAGDVEFEQSKLSRLPFPDDSADIVYSFSSLHRWRRPVETLREAARVCKPDGTVLIEDVNRLAEEGHITFILQFVKEGGDQFMRSLKAAYSLDQARDLLREAGLDDWHVVEEDLGLVISNRPVTPVSM
notes: SAM-dependent methyltransferase C10Q of the CC-1065 biosynthetic gene cluster, Streptomyces zelensis NRRL 11183; cloned from total DNA by 'similar procedures' as the intact c10P gene; source: E. coli Rosetta(DE3) (strain E. coli Ro37-Q), purified (Ni-NTA, desalination column)
  Kd: 8 µM
